Source: a protein production outcome set (Wang et al. 2014)

Assay: label from the status in PepcDB records

| Sequence | protein production |
| --- | --- |
| MPNTTAKKDYTKYSEKQLFNLIHQLERKIKKMQNDRISFKEKMAKELEKRDQNFKDKIDALNELLQKISQAFDDKRDCCLGHEIPNIETQQAMRDALNGINLTQIDSLDDFTNELKRENSKGFENVCFSV | failed |
| MSGTKLEDSPPCRNWSSASELNETQEPFLNPTDYDDEEFLRYLWREYLHPKEYEWVLIAGYIIVFVVALIGNVLVCVAVWKNHHMRTVTNYFIVNLSLADVLVTITCLPATLVVDITETWFFGQSLCKVIPYLQTVSVSVSVLTLSCIALDRWYAICHPLMFKSTAKRARNSIVIIWIVSCIIMIPQAIVMECSTVFPGLANKTTLFTVCDERWGGEIYPKMYHICFFLVTYMAPLCLMVLAYLQIFRKLWCRQIPGTSSVVQRKWKPLQPVSQPRGPGQPTKSRMSAVAAEIKQIRARRKTARMLMVVLLVFAICYLPISILNVLKRVFGMFAHTEDRETVYAWFTFSHWLVYANSAANPIIYNFLSGKFREEFKAAFSCCCLGVHHRQEDRLTRGRTSTESRKSLTTQISNFDNISKLSEQVVLTSISTLPAANGAGPLQNW | failed |
| MDKILFDIALILIFTKIGSLISIHFKMPGVLGELIAGVILGPFILNLIQANADIKLLSDLGVVFLMFLAGIETNLDELKKAGKSSFLIALGGIIIPLIVGTLSAYMFFSNFYENLFVGVILTATSVSISVQTLTELGKLNTRSGINILGAAIIDDVLGLILITVVLAISGGTKSHGSSIFMTFIYIGIFCLVSLLAIAFLPKPIDKLTQKFKPQKGLAIFSIAAALICAFTAEKLGIAAITGAYICGLVLSPITHKEYIEKRVKIISTSFLSPIFFASVGISASVKGLNFEVLLITLIMFIIAVIGKILGCSASALTLKFKKSEALQIGVGMVSRGEVAIITANIGLQAKIISEEIFLPTLIVVILTTVITPILLKIVFSHKTQKLIDKETLT | failed |
| MAATAREDGASGQERGQRGCEHYDRGCLLKAPCCDKLYTCRLCHDNNEDHQLDRFKVKEVQCINCEKIQHAQQTCEECSTLFGEYYCDICHLFDKDKKQYHCENCGICRIGPKEDFFHCLKCNLCLAMNLQGRHKCIENVSRQNCPICLEDIHTSRVVAHVLPCGHLLHRTCYEEMLKEGYRCPLCMHSALDMTRYWRQLDDEVAQTPMPSEYQNMTVDILCNDCNGRSTVQFHILGMKCKICESYNTAQAGGRRISLDQQ | failed |
| MSVHHAERFLPFSDLQMFTLVADVERYPQFVPWWIAARVIDSRPAPAGDGPDAKIYRTDQVIGMGPVRLRFTSRTLLVSPRRISVASQGGGPVRDLSLDWWFDAQPGGCLTRLDMTLDLGSRSLENLLAGMSSEAAVKLVDAFERRAHALYQGG | failed |
| MRIHSIILLLFLLVISPVAGSISITDSTASKFDRYFYEGVRQREQENYAAAFDIFRYCHRLNPNDAALLSELGKLYIAIGRQEEGTRYLEQAYRLYPDNKNYGNILGAVYERQGRADDAVRLYEEMSEQFPSEDELRFKLANMYVQAGEIDKAIYIYNRMEAQNAVNAADASNYAEIRARLYLMTGQTNKALNELRRLCNRFPEVNEFRLKYAGTLLDSEKYDEAYEQLQLIARTDSTSGLYHFAMASYYLGTNEKEAAINEMIKVAADKDVAPEQKLPIILRFIGTDTDEEDAPKKEYNILLEKILASHPTEVDARLFYAELLEMQGDSIHAMEVCRPITEFAPKEERAWKFMLGRAVTGQNHTEVHRISEQARQYLPGVPLFYLYDAISYYIEKKGSEAKHILQEALEHIDAEKDPNGLSDIYSQLGDLAYEENKPEEAFANYEKALELNPRNVGVLNNYAYFLAKEGGDLAKAERMAAQCVKLLPDNAVSLDTYGWVFFLRENYTLAKLYIEKALGLAADNPDADVVEHHGDVLYMLGEKEKAMLEWKRAKEIGGGGSPMLDKKIEQGKYIPEKKK | failed |
| MNFDRIFAWPLTSLEVFMNLALPSQYQFLPRFFRLATIAVLSNMMVPLAGLVDTAFLGHLEDIDYLAGVILGSILFDYLYRVLKFLRTSTTALTAQAVGEEDQAEVWVAGLRSALVALLLGLGILALQYPLQKFGFALLTGAPGVEQSGMDYFYGRIWGAPAVLLNFVILGWLLGQERNGLVLLISLVANFSNVGLDYLMINRWGWASAGAGWATASSQYLALALGLISIVVLAQGEKEKGEFKAAIAKLSDWGALRATIALKGNILIRFVILITTYSLFTNISSSFGTEVLAQNGLLLQIALLSQFTIQGVGMTSQTLTGNFKSKGEYQLLLPVLLTAIVTTLLMALGFAAVAIAFPETLFGLLTNHAEINDSVRQYTIWLIPLLESTALAFMLEAYFIGLKASQPLRNGVLFAFFGIYLPCLGLAIWQQSNNLLWFSLVSYMLGLVVYLGWQLLTRFSPQTLALESKQPS | failed |
| ISRRNQDMLLSVLDLEKMTVDDIMVPRSEIIGIDINDDWKSILRQLSHSPHGRIVLYRDSLDDAISMLRVREAWRLMSEKKEFTKETMLRAADEIYFVPEGTPLSTQLVKFQRNKKKVGLVVNEYGDIQGLVTVEDILEEIVGDFTTSMS | not failed |
| MMSFSQIINDFIQSFSSINLGGNFKEIVTNPLTILTLIGVLIILVLLIKAKDIKFDAKMLTTIGIALALTAVLNMLKIYKFPQGGGITLGSMIPIILIAYAYGPLVGMLTGFLFGIISLFIDPYILHPVQVLFDYPIPYMALGVAGFFKNHRISGAVVAIFLKFLAHFISGVVFFGSFAPEGMSPILYSFLVNGSLIGADGLICVVLLGILPVNRLIKAISSKSVTSKYAS | failed |
| MSGGGVIRGPAGNNDCRIYVGNLPPDIRTKDIEDVFYKYGAIRDIDLKNRRGGPPFAFVEFEDPRDAEDAVYGRDGYDYDGYRLRVEFPRSGRGTG | not failed |
| MVELEKEKIVWIAIILLIIFLVWETLKDLIAPIVFGMAASYIAYPFHIKLSKKVGKRNSVLILSGILSIFSLIFFVGVTLWITDTLKNLYNYLDAFFSWLSTLNVPGFLSSLFDALATSFPEKLRSILLQYTLSLPKLALQLIVFLAVFYATLLNADFLAKEIYELLPLTNRELGEKMIEKVKDTVDAILKTWLFFSVVKGIFLALGFYLFKISNVAGSIAAGVLCIVLELLPVVGGWIMWLAGAIILLRRSMLLAIIFAIYGIITISPIPDYFLKPKFAKERAKVSSVVALVGIFGGWIAFGAVGIILGPIAIGLLLALIDAWREIGTKQPSKAHRSQDA | failed |
| MTHTHRPAALEVHHPQPLAVHPTVAPLVTVQPGPTPAVQSIVLPDGRVVTGYTLTPAPALAPVDARPAVSRTAVNVALGGVGFAAVCGGLVLLTTFIAALTTFISQLITLAAVIFGGWIAVQILGGTRHTGRGGTTINIRKAVIKRSHFHG | failed |
| MDDWEDEKIAPLPAKVELKSNWDDEDVDENEIKDSWEDDDDEPAQPPVINPAPEKAPKKAAPKTVEKKGKAVEVPKEAPKEKPLDPIAEKLRQQRLVEEADYRATAELFGVKDDDKNLDMFIPKSESDFLEYAEMISHRIKPYEKSYHYIALLKTIMRLSLTNMKAADVKDVASSITTIANEKLKAEKEAAAGKKKGGKKKQLIVDKANDDLVAGPYDAMDDFDFM | failed |
| MNNKLKTQAVEQLFQAILSLKDLDEAYDFFEDVCTINEILSLSQRFEVAKMLREHRTYLDIAEKTGASTATISRVNRSLNYGNDGYDRVFERLGMLEKESEDNK | not failed |
| MQKKSQTAQSYHPMIKEFPEFYGPLTCPGQFLALLILEFGLNFAEIQKLKWENFNWNFKYLTIEKAGIKRVLPIREKFAIRVKAINNADELFAKSRQFLYTELKKFTNYSSKEIREQYILHQVKAGKSIYELATLLGLTTITTLEKYYRLEHHHHHH | failed |
| MAGASLFTLLDDIATLLDDVSILTKVAAKKTAGVLGDDLALNAQQVTGVTADRELPVVWAVAKGSLVNKVILVPAALAISALEAWLRGRGYNVPLVMPLMMIGGAYLCFEGVEKLAHKFLHSEEEDAQRHAERTRVLADEAVDVVALEKDKVKGAIRTDFILSAEIIVLSLGVVAGVSFGQQVAVLVAIALAMTIGVYGLVAGIVKLDDLGLYLSKKGAALAALGRGILVAAPWLMKFLSVAGTLAMFLVGGGILVHNIPTLHHLVVDLAKASGSLGWLVEALGNMLVGVVAGAVVLAAVTGFQKLRGNRPRTDSVQSLRRQAKSRTG | failed |
| MENKYLVSIIVPVHNTADYLHKCIESLRSQTLQQIEIILVDNLSVDGSSEICDEYAKIDKRIKVLHLSIAGLSIARNAGMRIASAPYIGFVDSDDYVEPAMFEKMLDAMVQSDAEIAYCNFLLEYEFKPNESPYRNSGDIVIRDPKNVLQDMMMEKVSCSACTKLYKSGFLTSLQFPEGKNYEDRLVMYEWVALCKKVVWVDSPFYHYVERQTSICHTMSPMNLYHYFLAEYARMRFMEKYSLFEEEDLFKIRTRLIGTCLTIFKEILLKVNLREFKEPVKDMRQKMKEIAALPEDTYELKYRRRVRKIAYHWHLYYLTHFLFKKGGDSLEHHHHHH | failed |
| MKKVLPALLMGFVGLNASDRLLEIMRLYQKQGLEMVGQKLDSYLADKSFWAEELQNKDTDFGYYQNKQFLFVANKSKPSLEFYEIENNMLKKINSSKALVGSKKGDKTLEGDLATPIGVYRITQKLERLDQYYGVLAFVTNYPNLYDTLKKRTGHGIWVHGMPLNGDRNELNTKGCIAIENPLLSSYDKVLKGEKAFLITYEDKFFPSTKEELSMILSSLFQWKEAWARGDFERYMRFYNPNFTRYDGMKFNAFKEYKKRVFAKNEKKNIAFSSINVIPYPNSQNKRLFYVVFDQDYKAYQHNKLSYSSNSQKELYIEIENNQVSIIMEK | failed |
| MLSKFLLFSARLSTTKILASLIIIMILATGLYQWLIHTPAFSPQVSAVSTTTENDFSLTDWTINLVDKLNWQQGGSSTFFNAGLLFVFLSLATSVGLPRQIAALVAGINLGAFIGIIVATLAATLGCFITFSVARYLLSDCITRKYPSKLAQLSAFLGEQTFLKAIVIRILPLGSNFITNIIAGVSKVSMPAYVSGSFVGFIPQMVIFSLAGSGIRLGAQNELIASATLFVIALILTTYLVKKHKAKTKN | failed |
| MFPFGPHSPGGDETAGAEEPPPLGGPAAASRPPSPAPRPASPQRGADAASPPPVAGSPRLPGGPAVSPAERAGEFAAPGALELSAATASASQAKLSPSSSPRRRSRPDWRAGGRSRQGLGAGLGGPGARLFGWLRERSLGRGLFVDPARDNFRTMTNLYGSIHPADSVYLSTRTHGAVFNLEYSPDGSVLTVACEQTEVLLFDPISSKHIKTLSEAHEDCVNNIRFLDNRLFATCSDDTTIALWDLRKLNTKVCTLHGHTSWVKNIEYDTNTRLLVTSGFDGNVIIWDTNRCTEDGCPHKKFFHTRFLMRMRLTPDCSKMLISTSSGYLLILHELDLTKSLEVGSYPILRARRTTSSSDLTTTSSSSGSRVSGSPCHHNDSNSTEKHMSRASQREGVSPRNSLEVLTPEVPGERDRGNCITSLQLHPKGWATLLRCSSNTDDQEWTCVYEFQEGAPVRPVSPRCSLRLTHYIEEANVGRGYIKELCFSPDGRMISSPHGYGIRLLGFDKQCSELVDCLPKEASPLRVIRSLYSHNDVVLTTKFSPTHCQIASGCLSGRVSLYQPKF | failed |
| MRRLFPEESEALLFKTLNYIPIPILLSEALAVEGRRPSTHRIHRFMNHAFVEQLGYNLSEIPNIAAWFDTVYPDPIIREQAMLEWDSVVYESEQQGLSTAGFKTFIRCGTGQFRWFLINAQLTTENQSNLNIVTMRDVHQLQLLLEENERQSKTDLLTGLANRRQIEDVLAAAMAKSDRTQSSLCVVMCDIDFFKNINDNFGHLCGDDVLKIVASQLQHSAQAATCIARWGGEEFLIVLEHVVPESAGVLCEQLRGLIAATDYQSYGQHMQLTMSFGCVQYQANESLQSLLCRVDKALYQAKNGGRNQVVMD | failed |
| MKKKDMNKQVKIQDAVAAIILAEGPAGVSTTKVAKRVGIAQSNVYLYFKNKQALIDSVYARETNRILSTTDLDRLSDSTIDVTTRIRLYVQQVYDYSLANPDSLTIIQQIKALNGQGMTISAADADPNNIVANLLTAAIDAKVIKQLPVSLHMGVVFSTIHTHTTNISKGRYAQDQYTFGDIFQMIWDAMKQD | not failed |
